# Results as given in IntAct's records for PubMed 25728924.
# B1: Leucine-rich repeat transmembrane protein FLRT2 (Mus musculus), Q8BLU0 (parent)
# chain: MGLQTTKWPGRGAFILKFWLIISLGLYLQVSKLLACPSVCRCDRNFVYCNERSLTSVPLGIPEGVTVLYLHNNQINNAGFPAELHNVQSVHTVYLYGNQLDEFPMNLPKNVRVLHLQENNIQTISRAALAQLLKLEELHLDDNSISTVGVEDGAFREAISLKLLFLSKNHLSSVPVGLPVDLQELRVDENRIAVISDMAFQNLTSLERLIVDGNLLTNKGIAEGTFSHLTKLKEFSIVRNSLSHPPPDLPGTHLIRLYLQDNQINHIPLTAFANLRKLERLDISNNQLRMLTQGVFDHLSNLKQLTARNNPWFCDCSIKWVTEWLKYIPSSLNVRGFMCQGPEQVRGMAVRELNMNLLSCPTTTPGLPVFTPAPSTVSPTTQSPTLSVPSPSRGSVPPAPTPSKLPTIPDWDGRERVTPPISERIQLSIHFVNDTSIQVSWLSLFTVMAYKLTWVKMGHSLVGGIVQERIVSGEKQHLSLVNLEPRSTYRICLVPLDAFNYRTVEDTICSEATTHASYLNNGSNTASSHEQTTSHSMGSPFLLAGLIGGAVIFVLVVLLSVFCWHMHKKGRYTSQKWKYNRGRRKDDYCEAGTKKDNSILEMTETSFQIVSLNNDQLLKGDFRLQPIYTPNGGINYTDCHIPNNMRYCNSSVPDLEHCHT
# B2: Adhesion G protein-coupled receptor L3 (Mus musculus), Q80TS3 (parent)
# chain: MWPPQLLILTMLLAPVVHGGKHNERHPALAAPLRHAERSPGGALPPRHLLQQPAAERSTAHRGQGPRGAARGVRGPGAPGAQIAAQAFSRAPIPMAVVRRELSCESYPIELRCPGTDVIMIESANYGRTDDKICDSDPAQMENIRCYLPDAYKIMSQRCNNRTQCAVVAGPDVFPDPCPGTYKYLEVQYECVPYKVEQKVFLCPGLLKGVYQSEHLFESDHQSGAWCKDPLQASDKIYYMPWTPYRTDTLTEYSSKDDFIAGRPTTTYKLPHRVDGTGFVVYDGALFFNKERTRNIVKFDLRTRIKSGEAIIANANYHDTSPYRWGGKSDIDLAVDENGLWVIYATEQNNGKIVISQLNPYTLRIEGTWDTAYDKRSASNAFMICGILYVVKSVYEDDDNEATGNKIDYIYNTDQSKDSLVDVPFPNSYQYIAAVDYNPRDNLLYVWNNYHVVKYSLDFGPLDSRSGPVHHGQVSYISPPIHLDSELERPPVRGISTTGSLGMGSTTTSTTLRTTTWNIGRSTTASLPGRRNRSTSTPSPAVEVLDDVTTHLPSAASQIPAMEESCEAVEAREIMWFKTRQGQVAKQPCPAGTIGVSTYLCLAPDGIWDPQGPDLSNCSSPWVNHITQKLKSGETAANIARELAEQTRNHLNAGDITYSVRAMDQLVGLLDVQLRNLTPGGKDSAARSLNKLQKRERSCRAYVQAMVETVNNLLQPQALNAWRDLTTSDQLRAATMLLDTVEESAFVLADNLLKTDIVRENTDNIQLEVARLSTEGNLEDLKFPENMGHGSTIQLSANTLKQNGRNGEIRVAFVLYNNLGPYLSTENASMKLGTEAMSTNHSVIVNSPVITAAINKEFSNKVYLADPVVFTVKHIKQSEENFNPNCSFWSYSKRTMTGYWSTQGCRLLTTNKTHTTCSCNHLTNFAVLMAHVEVKHSDAVHDLLLDVITWVGILLSLVCLLICIFTFCFFRGLQSDRNTIHKNLCISLFVAELLFLIGINRTDQPIACAVFAALLHFFFLAAFTWMFLEGVQLYIMLVEVFESEHSRRKYFYLVGYGMPALIVAVSAAVDYRSYGTDKVCWLRLDTYFIWSFIGPATLIIMLNVIFLGIALYKMFHHTAILKPESGCLDNINYEDNRPFIKSWVIGAIALLCLLGLTWAFGLMYINESTVIMAYLFTIFNSLQGMFIFIFHCVLQKKVRKEYGKCLRTHCCSGKSTESSIGSGKTSGSRTPGRYSTGSQSRIRRMWNDTVRKQSESSFITGDINSSASLNREGLLNNARDTSVMDTLPLNGNHGNSYSIAGGEYLSNCVQIIDRGYNHNETALEKKILKELTSNYIPSYLNNHERSSEQNRNMMNKLVNNLGSGSEDDAIVLDDAASFNHEESLGLELIHEESDAPLLPPRVYSTDNHQPHHYSRRRFPQDHSESFFPLLTDEHTEDLQSPHRDSLYTSMPALAGVPAADSVTTSTQTEAAAAKGGDAEDVYYKSMPNLGSRNHVHPLHAYYQLGRGSSDGFIVPPNKDGASPEGTSKGPAHLVTSL
# partner: B1 chain
# Variants of: B1
# Details: with agrl3_mouse Adgrl3, Q80TS3
row,Variant,effect of a mutation on the interaction
1,R186N;D188T,disrupting interaction strength

# Variants of: B2
# Details: with flrt2_mouse Flrt2, Q8BLU0
row,Variant,effect of a mutation on the interaction
1,R324N;G326T,disrupting interaction strength
2,T267N;K269T,decreasing interaction strength
3,P244N;R246T,decreasing interaction strength
4,R292N;R294T,disrupting interaction strength
